Data: patent US20240150495A1

T1: synthetic peptide Rp10-L, a mimotope of B-cell molecular marker CD20
T1 sequence (peptide): ITPWPHWLERSS


Columns and labels:
[1] = target: T1, synthetic peptide Rp10-L, a mimotope of B-cell molecular marker CD20; assay: ELISA, periplasmic extract, Rp10-L 0.81 µg/ml; well without peptide 0.265
[2] = target: T1, synthetic peptide Rp10-L, a mimotope of B-cell molecular marker CD20; assay: ELISA, periplasmic lysate on coated Rp10-L, single well; plate A background 0.027
[3] = target: T1, synthetic peptide Rp10-L, a mimotope of B-cell molecular marker CD20; assay: ELISA, periplasmic extract, Rp10-L 6.25 µg/ml; well without peptide 0.265
[4] = target: T1, synthetic peptide Rp10-L, a mimotope of B-cell molecular marker CD20; assay: ELISA, periplasmic extract, Rp10-L 50.0 µg/ml; well without peptide 0.265
[5] = target: T1, synthetic peptide Rp10-L, a mimotope of B-cell molecular marker CD20; assay: ELISA, periplasmic extract, Rp10-L 25.0 µg/ml; well without peptide 0.265
[6] = target: T1, synthetic peptide Rp10-L, a mimotope of B-cell molecular marker CD20; assay: ELISA, periplasmic extract, Rp10-L 1.63 µg/ml; well without peptide 0.265
[7] = target: T1, synthetic peptide Rp10-L, a mimotope of B-cell molecular marker CD20; assay: ELISA, periplasmic extract, Rp10-L 3.13 µg/ml; well without peptide 0.265
[8] = target: T1, synthetic peptide Rp10-L, a mimotope of B-cell molecular marker CD20; assay: ELISA, periplasmic extract, Rp10-L 12.5 µg/ml; well without peptide 0.265
[9] = target: T1, synthetic peptide Rp10-L, a mimotope of B-cell molecular marker CD20; assay: ELISA, periplasmic extract, Rp10-L 12.5 µg/ml; well without peptide 0.469
[10] = target: T1, synthetic peptide Rp10-L, a mimotope of B-cell molecular marker CD20; assay: ELISA, periplasmic extract, Rp10-L 1.63 µg/ml; well without peptide 0.469
[11] = target: T1, synthetic peptide Rp10-L, a mimotope of B-cell molecular marker CD20; assay: ELISA, periplasmic extract, Rp10-L 0.81 µg/ml; well without peptide 0.469
[12] = target: T1, synthetic peptide Rp10-L, a mimotope of B-cell molecular marker CD20; assay: ELISA, periplasmic extract, Rp10-L 50.0 µg/ml; well without peptide 0.469
[13] = target: T1, synthetic peptide Rp10-L, a mimotope of B-cell molecular marker CD20; assay: ELISA, periplasmic lysate on coated Rp10-L, single well; plate D background 0.035
[14] = target: T1, synthetic peptide Rp10-L, a mimotope of B-cell molecular marker CD20; assay: ELISA, periplasmic extract, Rp10-L 3.13 µg/ml; well without peptide 0.469
[15] = target: T1, synthetic peptide Rp10-L, a mimotope of B-cell molecular marker CD20; assay: ELISA, periplasmic extract, Rp10-L 25.0 µg/ml; well without peptide 0.469
[16] = target: T1, synthetic peptide Rp10-L, a mimotope of B-cell molecular marker CD20; assay: ELISA, periplasmic extract, Rp10-L 6.25 µg/ml; well without peptide 0.469

ELISA absorbance [1] | A492/620 [2] [A492/620] | ELISA absorbance [3] | ELISA absorbance [4] | ELISA absorbance [5] | ELISA absorbance [6] | ELISA absorbance [7] | ELISA absorbance [8] | ELISA absorbance [9] | ELISA absorbance [10] | ELISA absorbance [11] | ELISA absorbance [12] | A492/620 [13] [A492/620] | ELISA absorbance [14] | ELISA absorbance [15] | ELISA absorbance [16] | Binder
0.362 | 0.395 | 0.343 | 0.398 | 0.335 | 0.383 | 0.352 | 0.315 |  |  |  |  |  |  |  |  | CH3 clone A21 (mutated human IgG1 CH3 domain, CH3+3 library) (designed binder, not shown: small tags and cut ends) MAPREPQVYTLPPSRDELVDGQVSLTCLVKGFYPSDIAVEWESNGQPENNYKTTPPVLDSDGSFFLYSKLTVPWGPRDRWWPGNVFSCSVMHEALHNHYTQKSLSLSPGKAAA
 |  |  |  |  |  |  |  | 0.77 | 0.719 | 0.66 | 0.765 | 0.448 | 0.719 | 0.868 | 0.694 | CH3 clone D39 (mutated human IgG1 CH3 domain, CH3+3 library) (designed binder, not shown: small tags and cut ends) MAPREPQVYTLPPSRDELGWWQVSLTCLVKGFYPSDIAVEWESNGQPENNYKTTPPVLDSDGSFFLYSKLTVQQKPFARWTDGNVFSCSVMHEALHNHYTQKSLSLSPGKAAA
